In the DeepSol protein solubility set:

Experiment: soluble on expression in E. coli; label from the status in PepcDB or PDB records

Row | Sequence | soluble on expression in E. coli
1 | LNKELQHERLAYITDSELIIFADFLPTEFVDEYLIDQSEESVAHIQQALSYEDNKVGRYAEPHFLVANPKNSVGGIKTELLKRGQSPVRLIIVRDVGGVIGTIEPQILLLHENHTKLTDLTVVTPILEDIQTIQSVSKQVSIDGGAHWFPIMAGGKIMGVLSMATIAITLRELSLQAVVAENVRSEEDLFTPLTVATRLRAL | not soluble
2 | LPNITILATGGTIAGGGDSATKSNYTVGKVGVENLVNAVPQLKDIANVKGEQVVNIGSQDMNDNVWLTLAKKINTDCDKTDGFVITHGTETMEETAYFLDLTVKCDKPVVMVGAMRPSTSMSADGPFNLYNAVVTAADKASANRGVLVVMNDTVLDGRDVTKTNTTDVATFKSVNYGPLGYIHNGKIDYQRTPARKHTSDTPFDVSKLNELPKVGIVYNYANASDLPAKALVDAGYDGIVSAGVGNGNLYKSVFDTLATAAKTGTAVVRSSRVPTGATTQDAEVDDAKYGFVASGTLNPQKARVLLQLALTQTKDPQQIQQIFNQY | soluble
3 | LPTSNPAQELEARQLERTTRDDLINGNSASCADVIFIYARGSTEAGNLGTLGPSIASNLESAFGKDGVWIQGVGGAYRATLGDNALPRGTSSAAIREMLGLFQQANTKCPDATLIAGGYSQGAALAAASIEDLDSAIRDKIAGTVLFGYTKNLQNRGRIPNYPADRTKVFCNTGDLVCTGSLIVAAPHLAYGPDARGPAPEFLIEKVRAVRGSA | soluble
4 | LQELSITNFAIIEHLDIAFEAGMTVLTGETGAGKSIIIDAVGLLAGGRGSAEFIRTGADKAVLQGMFILPADGVTAQLLDEAGIEHADNTVILQREITKSGRNTCRINGMLVNTTTLKQIGETIVDIHGQNEHQELMQPEKHLGLLDEFATA | not soluble
5 | LQYQPNKLARALTSSGFDAIMVISTRSTKTTAGNPFFSEVLHAITAKAEEEGFDVILQTSHNPAEDLQKCESKIKQKMIKGIIMLSSPADESFFAQLDKYDIPVVVIGKVEGQYAHVYSVDTDNFGDSIALTDALIESGHQNIACLHAPLDVHVSVDRVNGYKQSLAAHNIAVRDEWIVDGGYTHETALKAARQLLSQSPLPEAVFATDSLKLMSIYRAAAEKNIAIPQQLAVVGYSNETLSFILTPAPGGIDVPTQELGQQSCELLFRLISGKPSPQNITVATHMTLK | soluble
6 | LRSSSQNSSDKPVAHVVANHQVEEQLEWLSQRANALLANGMDLKDNQLVVPADGLYLVYSQVLFKGQGCPDYVLLTHTVSRFAISYQEKVNLLSAVKSPCPKDTPEGAELKPWYEPIYLGGVFQLEKGDQLSAEVNLPKYLDFAESGQVYFGVIAL | soluble
7 | LSFQDELMRALNPDVLVVQKRPEGVLPLDELVRRIEGAEPGRKVAFVWVEMDSDKAGRIFYTPPPGQRRGESRWIDPYTGAFVGEPRGEGFFNLMMQLHRFLAMGEYGKQV | not soluble
8 | LSGLTRPQEGTDEVTDAHASACLAALERGFDAEWGGFGGEPKFPRPAVLSFLFSHAVATGNRHALDMALLTLRKMAAGGIHDHLGVAGLGGGGFARYSTDRFWHVPHFEKMLYDNAQLAASYLEAYQASGDELFANTARDIFHYVLCDMTSPEGAFWSAEDADSLDPYGSGEKREGAFYLWTEQEITGLLDPEEATLFIATYGIRSDGNAPFDPHGEFTGKNILIRTMSDNELAGTFEIPIETVGKRLNSARKKLFEARKKRPRPGLDDKILTSWNGLMLSALAKGSLVLGDTTLLEAAERAARFILDTLCDSKSGKLLRRYRDGQAAIEGKAADYACLILGLLDLYSASFDSDWLRAAIKLAEAQIERFFDQEAGVFYSTAVEDHSVPLR | not soluble
9 | LTAEEIIQYISDAKKSTPIKVYLNGNFEGITYPESFKVFGSEQSKVIFCEADDWKPFYEAYGSQFEDIEIEMDRRNSAIPLKDLTNTN | soluble
10 | LTLGSISLTAFIMGVVFWGGFNTALEATNTEEFCIGCHSMESKPYQELQKTVHWSNHSGVRATCPDCHVPHSWGRKIARKMEASSDVWGWVFNTVNTSEKFEDKRLEMASREWARFERDDSLACKNCHNYDSMKWDTMSKLAQKQMKRAAEKDQSCVDCHKGIAHILPDMGTARAPQLIAEVGTGPSKFTNEQYYFSALTKPLFFSAKGDVEAGTLNVATKVKILESKENRVKVSISGWRKQIGAGRVIYYDFGINMLTAQLSKEAAKTEGVINGFEEKEDEMTGLKWQRVETTLWTDAEYLITEQQPLWDYARTTFRSSCSVCHTQPDEAHFDA | not soluble
11 | MAADPASAPVLLHPRRAMVLAAGLGLRMRPLTETMPKPLVAIHDKPLIDWALDHLATAGVEEAVVNLHHLPEMLEAHLQGRATPRIHFSDETGQRLETGGGVRKALPHLGDDPFYVLNSDVLWLNGTIPALDRLAAAWDPETMDALLLLHPLAAAHGYEGLGDFDLDPLGRPTRRAEMHMAPFIFTGVQILHPRLFDDAPEGPFSLNVLYDRALSEDRLAAIVHDGEWYHVGTPQALVHTETILGQHSSMSDQLEHHHHHH | not soluble
12 | MAADYDKLFRPHEGMEAPDDMAAQPFFDPSASFPPAPASANLPKPNGQTPPPTSDDLSERFVSAPPPPPPPPPPPPPTPMPIAAGEPPSPEPAASKPPTPPMPIAGPEPAPPKPPTPPMPIAGPEPAPPKPPTPPMPIAGPAPTPTESQLAPPRPPTPQTPTGAPQQPESPAPHVPSHGPHQPRRTAPAPPWAKMPIGEPPPAPSRPSASPAEPPTRPAPQHSRRARRGHRYRTDTERNVGKVATGPSIQARLRAEEASGAQLAPGTEPSPAPLGQPRSYLAPPTRPAPTEPPPSPSPQRNSGRRAERRVHPDLAAQHAAAQPDSITAATTGGRRRKRAAPDLDATQKSLRPAAKGPKVKKVKPQKPKATKPPKVVSQRGWRHWVHALTRINLGLSPDEKYELDLHARVRRNPRGSYQIAVVGLKGGAGKTTLTAALGSTLAQVRADRILALDADPGAGNLADRVGRQSGATIADVLAEKELSHYNDIRAHTSVNAVNLEVLPAPEYSSAQRALSDADWHFIADPASRFYNLVLADCGAGFFDPLTRGVLSTVSGVVVVASVSIDGAQQASVALDWLRNNGYQDLASRACVVINHIMPGEPNVAVKDLVRHFEQQVQPGRVVVMPWDRHIAAGTEISLDLLDPIYKRKVLELAAALSDDFERAGRR | soluble
13 | MAAESQLKRVIETLRRLGIEEVLKLERRDPQYRAVCNVVKRHGETVGSRLAMLNALISYRLTGKGEEHWEYFGKYFSQLEVIDLCRDFLKYIETSPFLKIGVEARKKRALKACDYVPNLEDLGLTLRQLSHIVGARREQKTLVFTIKILNYAYMCSRGVNRVLPFDIPIPVDYRVARLTWCAGLIDFPPEEALRRYEAVQKIWDAVARETGIPPLHLDTLLWLAGRAVLYGENLHGVPKEVIALFQWRGGCRPPSE | soluble
14 | MAAFSQLYDLHINILFNYGLKLTIDKELLKDCIHDIFVKLYTKKDELGTIDNLKSYLFISLKNKLCDELRKRMYMSDTAIEDVNAVAPTDVEDDYMEEEQRKNEFSLVKRLLDQLSPRQREALTLYYIEEKKYEDICEIMNMNYQSVRNLMHRGLTKLRSLAS | not soluble
15 | MAAGTFTAQNKVRPGVYINFKSEPQAAGTLGERGIVSMPLILSWGEPGKMITIEAGDDVFPKLGYSIMDAQLRLINEALKRAKTLLLYRLNAGTKAAVTVGNLTVTAKWGGARGNDITLVIQENIDDETKFDVSTLVDGAELDKQTVSDIAGLAANDWVIFSGTGALTETAGAPLINGSDGAVTNQAYIDYLAAVEIFDFNTIALPSTDDALKATFTAFAKRLRDDEGKKIQVVLENYPAADYEGVISVKNGVVLADGTILTAAQATAWVAGATAGARVNESLTYQGYDEAVDVAPRYTNAQIIAALQAGEFLFTASDNQALVEQDINTLTSFTADKGKQFAKNRVIRVLDGINNDFVRIFSKFYIGKVSNNADGRNLLKSECINYMNTLQDIDAIKNFDGQTDLTVQSGNDVDAVYIEAYAWPVDSIEKIYVRVRIKLEHHHHHH | soluble
16 | MAAKNAFYAQSGGVTAVINASAAGVIEAARKQSGKIGRIYAGRNGIIGALTEDLIDTGQESDAAISALRYTPSGAFGSCRYKLKSLEQNRREYERLIEVFKAHDIGYFFYNGGGDSADTCLKVSQLSGTLGYPIQAIHVPKTVDNDLPITDCCPGFGSVAKYIAVSTLEASFDVASMSATSTKVFVLEVMGRHAGWIAAAGGLASSPEREIPVVILFPEISFDKQKFLAKVDSCVKKFGYCSVVVSEGVKGDDGKFLSDQGVRDAFGHAQLGGVAPVVASMVKEGLGLKYHWGVADYLQRAARHIASKTDVEQAYAMGQAAVEFAVQGHNSVMPTIERISARPYQWKVGMAQLSQVANVEKMMPENFITEDGFGITDLCREYLAPLIEGEDYPPYKDGLPDYVRLKNVAVPKKLSGFTL | soluble
